# Source: PMC8713982, “Structure and RNA template requirements of Arabidopsis RNA-DEPENDENT RNA POLYMERASE 2”
# T1: TF-RDR2-RRM (Arabidopsis thaliana, UniProt O82504 1-100)
# T1 sequence: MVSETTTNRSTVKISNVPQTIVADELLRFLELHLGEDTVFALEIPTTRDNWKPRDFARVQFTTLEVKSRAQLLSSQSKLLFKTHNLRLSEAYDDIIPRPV
# B1: 37-nt ssRNA (ssRNA)
# RNA: UCCGUCCGUCUGCUGUGGGUCUCCUUUCUCCUUCUUC
# Molecular target: T1, TF-RDR2-RRM
# Assay: EMSA; protein 1, 3, 9 uM; RNA 2 uM; 2 mM Mg2+; 25 mM Hepes-KOH pH 7.6, 50 mM NaCl, 2 mM MgCl2, RNase inhibitor, 30 min room temperature; 6% native PAGE
# Conditions: protein: recombinant; tags: N-terminal trigger factor (TF) fusion, pCold-TF; label: 5' Alexa647; single strand
binder,measurement,value
B1,binding result,binds
